What is called Ki is the dissociation constant of the complex between target and ligand, obtained from inhibition or displacement. A low value points to tighter binding.

The values that follow come from patent US7071384B2, “Methods for commercial production of heterologous laccase in plant tissue and extraction of the laccase from plant seed” (Genencor International, Inc., priority 1997, dated 2006).

Data set [1] is described as follows: Biotin inhibition of HABA binding to avidin. The conditions noted are these: competitive binding of biotin and HABA to avidin. An excerpt: The normalized absorbance value was obtained by subtracting from all the absorbance values, the value at which the absorbance change stopped.
In vivo, avidin exists as a homotetramer and its activity is to bind biotin to protect avian and reptilian eggs from pathogen invasion. Based upon this biotin-binding property, an analog of biotin, HABA, is utilized for the quantification of activity. Using the HABA binding assay, estimates of total avidin amounts in the fractions eluted from the affinity column were identical to estimates made by ELISA.

The nature of data set [2]: Isoelectric point determination. In kind it is physicochemical. Particulars: 10 is the highest pI that can be experimentally determined.
Data set [3] in a line: Effect of protease inhibitors on avidin stability in flaked maize kernel extract (biotin binding activity). In kind it is physicochemical. Particulars: control avidin dissolved in extraction buffer. Here is the method:
Dry maize kernels (12% MC; 500 g per batch) were first cracked using a roller mill (Ferrell-Ross, Oklahoma City, Okla.), then flaked to 0.3 mm thickness using Roskamp flaking rolls (Model K, Roskamp Mfg., Inc., Waterloo, Iowa.). The particle size distribution of flaked material was determined by sieving (see Table 1).
Twenty grams of flaked kernels were extracted with 200 ml of Tris-HCl pH 7.9 containing 500 mM NaCl, 1 mM CaCl2 with stirring for 30 min at ambient temperature. One extraction was performed in the absence of protease inhibitors (control) and one in the presence of a protease inhibitor mixture containing 10 mM 2-mercaptoethanol (2-ME), 5 mM ethylenediamine tetraacetic acid (EDTA), 0.1 mM phenylmethanesulfonyl fluoride (PMSF), and 0.2 mM Diazo-N-acetyl-N-Leu-MeO. EDTA and 2-ME were added at the beginning of the extraction, and PMSF and diazo-N-acetyl-N-Leu-MeO were added 15 minutes after the extraction began. The insoluble residue was separated by centrifugation at 20,500×g for 25 minutes at 0° C. The supernatant was filtered through four layers of cheesecloth. […] D: Residual avidin activity in cooked egg white assayed with improved sensitivity. J. Food Sci. 56:707 (1991].and for protein integrity on western blots. For a positive control, chicken egg white avidin (Sigma Chemical Co.) was dissolved in the extraction buffer and samples were taken as above for activity assays.

Turning to “egg white: native chicken egg white avidin (Sigma Chemical Co.)”, the affinity in data set [1], expressed as Ki, was 3.2 µM. In addition, the pI in data set [2] was 10. The “avidin activity in extraction buffer” value in data set [3] (0 h) came out at 88.2 µg/mL; in data set [3] (1 h), 62.6 µg/mL; in data set [3] (3 h) it was 61.1 µg/mL; in data set [3] (6 h), 60.6 µg/mL; in data set [3] (22 h) it was 59.6 µg/mL.
